Experimental data: the supplement of paper PMC7125110
± gives the standard error. This sample holds only a part of the variants without activity.

B1: glmS ribozyme (parent)
chain: AUAAAAGCGCCAGAACUACAGAAAUGUAGUUGACGAGGAGGAGGUUUAUCGAAUUUUCGGCGGAUGCCUCCAAA

Variants of: B1
Experiment: self-cleavage kobs at 10000 uM GlcN6P; higher = faster cleavage; RNA array
Settings: with glucosamine-6-phosphate
Procedure, shortened: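 Glucosamine-6-phosphate in HEPES/KCl/Mg(OAc)2 buffer, at 40 μM to 10 mM, was flowed over barcoded ribozyme variants transcribed in situ by E. coli RNA polymerase on sequenced MiSeq chips. Tracking was through a hybridised Cy3 probe at 37 °C. kobs, kcat and KM came from exponential decay fits and weighted Michaelis–Menten fits of normalised per-tile medians.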

Compared with U30C G32C G40A, A14C A39U U47C C70U is 6.8-fold higher in “self-cleavage kobs at 10000 uM GlcN6P” value: 6.96e-05 ± 1.4e-05 s⁻¹ for the first, 0.00047 ± 6.5e-05 s⁻¹ for the second.

Compared with A12U U46G A48G, A14G U31G C67U is 17-fold higher in “self-cleavage kobs at 10000 uM GlcN6P” value: 9.42e-05 ± 2.1e-05 s⁻¹ for the first, 0.00162 ± 0.00041 s⁻¹ for the second.

C8U G32C A36C G38C and G13C A36G G51A U55A cannot be ordered by “self-cleavage kobs at 10000 uM GlcN6P” value: less than 1e-05 s⁻¹ for the first, less than 1e-05 s⁻¹ for the second.

Compared with G13U A15U G62A C68A C70G, A12U G43U U46A is higher in “self-cleavage kobs at 10000 uM GlcN6P” value: less than 1e-05 s⁻¹ for the first, 4.1e-05 ± 1.8e-05 s⁻¹ for the second.

A12G G63C C70U and G38C C50A cannot be ordered by “self-cleavage kobs at 10000 uM GlcN6P” value: less than 1e-05 s⁻¹ for the first, less than 1e-05 s⁻¹ for the second.

First: A39C U49A C61U C70G
Second: C8A C50G U54G C68U
The “self-cleavage kobs at 10000 uM GlcN6P” value of the first is lower: less than 1e-05 s⁻¹ for the first, 6.41e-05 ± 2.3e-05 s⁻¹ for the second.

Going from G13C C67U C68G to G21U G41C C70U, the “self-cleavage kobs at 10000 uM GlcN6P” value rises from less than 1e-05 s⁻¹ to 0.000298 ± 8.1e-05 s⁻¹.

First: U54A G66A C68A
Second: G40U G62U C68G
The “self-cleavage kobs at 10000 uM GlcN6P” value of the first is higher: 9.65e-05 ± 1.7e-05 s⁻¹ for the first, less than 1e-05 s⁻¹ for the second.

First: A39U G66U C67A
Second: C11A G44U C67U
The “self-cleavage kobs at 10000 uM GlcN6P” value of the first is 73-fold higher: 0.00316 ± 0.00061 s⁻¹ for the first, 4.33e-05 ± 2.1e-05 s⁻¹ for the second.

First: A6G C50G C68G
Second: U31G A36U C67A C68G
The “self-cleavage kobs at 10000 uM GlcN6P” value of the first is 2.2-fold lower: 2.86e-05 ± 1.1e-05 s⁻¹ for the first, 6.42e-05 ± 1.5e-05 s⁻¹ for the second.

A33U G40C U56A G60C C71U and U30C G35U G43U G66U cannot be ordered by “self-cleavage kobs at 10000 uM GlcN6P” value: less than 1e-05 s⁻¹ for the first, less than 1e-05 s⁻¹ for the second.

Compared with A48U G59U A64G, C16G U46G C67U is higher in “self-cleavage kobs at 10000 uM GlcN6P” value: less than 1e-05 s⁻¹ for the first, 0.000334 ± 6.9e-05 s⁻¹ for the second.

Going from A15U A39G U57C to A14U G40A U54A, the “self-cleavage kobs at 10000 uM GlcN6P” value rises from 6.65e-05 ± 1.8e-05 s⁻¹ to 0.000245 ± 8.4e-05 s⁻¹ (3.7-fold).

C10U G43U G60U and U30A G37C C50U cannot be ordered by “self-cleavage kobs at 10000 uM GlcN6P” value: less than 1e-05 s⁻¹ for the first, less than 1e-05 s⁻¹ for the second.

First: U30G A53U U69A
Second: A36G A53C C67A
The “self-cleavage kobs at 10000 uM GlcN6P” value of the first is higher: 4.29e-05 ± 1.8e-05 s⁻¹ for the first, less than 1e-05 s⁻¹ for the second.

Going from A6U G7U C8U G32A G51U to G13A A39G C67U, the “self-cleavage kobs at 10000 uM GlcN6P” value rises from less than 1e-05 s⁻¹ to 0.000112 ± 2.2e-05 s⁻¹.

Compared with U30A A33G C61G C70A, A14C U55A C71U is higher in “self-cleavage kobs at 10000 uM GlcN6P” value: less than 1e-05 s⁻¹ for the first, 0.00514 ± 0.0013 s⁻¹ for the second.

C10G U57G C67A and A36C U57A cannot be ordered by “self-cleavage kobs at 10000 uM GlcN6P” value: less than 1e-05 s⁻¹ for the first, less than 1e-05 s⁻¹ for the second.

C8U A12U A42C C70U and U30C G38A G63C U69C cannot be ordered by “self-cleavage kobs at 10000 uM GlcN6P” value: less than 1e-05 s⁻¹ for the first, less than 1e-05 s⁻¹ for the second.

First: U49G G60A C61G G62U
Second: U31A U47G A48G
The “self-cleavage kobs at 10000 uM GlcN6P” value of the first is lower: less than 1e-05 s⁻¹ for the first, 3.62e-05 ± 1.3e-05 s⁻¹ for the second.

Going from C16G G32C G43U U47G U56A to U56C G66A C71U, the “self-cleavage kobs at 10000 uM GlcN6P” value rises from less than 1e-05 s⁻¹ to 0.000503 ± 0.00011 s⁻¹.

Going from A14U G32U U46C to A15C G41U G66A, the “self-cleavage kobs at 10000 uM GlcN6P” value rises from 4.16e-05 ± 1.4e-05 s⁻¹ to 0.000194 ± 4.9e-05 s⁻¹ (4.7-fold).

C8G A15G G37C U49G and A15G U49G G60A cannot be ordered by “self-cleavage kobs at 10000 uM GlcN6P” value: less than 1e-05 s⁻¹ for the first, less than 1e-05 s⁻¹ for the second.

A6G G59C G62A and A39U G63U U65A cannot be ordered by “self-cleavage kobs at 10000 uM GlcN6P” value: less than 1e-05 s⁻¹ for the first, less than 1e-05 s⁻¹ for the second.

C8A A48U G66U and A12C A42C G59C cannot be ordered by “self-cleavage kobs at 10000 uM GlcN6P” value: less than 1e-05 s⁻¹ for the first, less than 1e-05 s⁻¹ for the second.

First: C8U G37C G43A C58A
Second: G32U U55A C58G
The “self-cleavage kobs at 10000 uM GlcN6P” value of the first is lower: less than 1e-05 s⁻¹ for the first, 0.000755 ± 0.00011 s⁻¹ for the second.

C34A A42C U65A and C58G G62U cannot be ordered by “self-cleavage kobs at 10000 uM GlcN6P” value: less than 1e-05 s⁻¹ for the first, less than 1e-05 s⁻¹ for the second.

G13U A36U G44U and A33U A39C A48C cannot be ordered by “self-cleavage kobs at 10000 uM GlcN6P” value: less than 1e-05 s⁻¹ for the first, less than 1e-05 s⁻¹ for the second.

First: G9A U45G C68U
Second: C11A U30A C70G
The “self-cleavage kobs at 10000 uM GlcN6P” value of the first is lower: less than 1e-05 s⁻¹ for the first, 5.91e-05 ± 1.5e-05 s⁻¹ for the second.

First: C58U G59A
Second: C16G A36C C58U C70G
The “self-cleavage kobs at 10000 uM GlcN6P” value of the first is lower: less than 1e-05 s⁻¹ for the first, 4.92e-05 ± 2.2e-05 s⁻¹ for the second.

A14G C34A G38A C67A and C16U C34U G44A cannot be ordered by “self-cleavage kobs at 10000 uM GlcN6P” value: less than 1e-05 s⁻¹ for the first, less than 1e-05 s⁻¹ for the second.

Going from G29U U47G C67G to A15C A64G C67G C68U, the “self-cleavage kobs at 10000 uM GlcN6P” value falls from 0.000103 ± 1.9e-05 s⁻¹ to less than 1e-05 s⁻¹.

First: G59A C68G C70U
Second: A39U G44A C67G
The “self-cleavage kobs at 10000 uM GlcN6P” value of the first is lower: less than 1e-05 s⁻¹ for the first, 0.00582 ± 0.0014 s⁻¹ for the second.

First: C16G U45C C67G
Second: C8A A12G A39G U45A A48C U55C
The “self-cleavage kobs at 10000 uM GlcN6P” value of the first is higher: 0.000811 ± 0.00018 s⁻¹ for the first, less than 1e-05 s⁻¹ for the second.

Going from C16G C67A C70U to U31G A53G U69C, the “self-cleavage kobs at 10000 uM GlcN6P” value rises from 9.5e-05 ± 2.1e-05 s⁻¹ to 0.00324 ± 0.00093 s⁻¹ (34-fold).

Compared with G9U C34G C70G, G37A A39G U54G U55A is higher in “self-cleavage kobs at 10000 uM GlcN6P” value: less than 1e-05 s⁻¹ for the first, 0.00276 ± 0.00061 s⁻¹ for the second.

G38C G44C A53U G62C and A6C G32C G41C C58U U65A cannot be ordered by “self-cleavage kobs at 10000 uM GlcN6P” value: less than 1e-05 s⁻¹ for the first, less than 1e-05 s⁻¹ for the second.

G7U A12G G35A A39G U49A C67A and A12U C16A G35A A42C G59U C71U cannot be ordered by “self-cleavage kobs at 10000 uM GlcN6P” value: less than 1e-05 s⁻¹ for the first, less than 1e-05 s⁻¹ for the second.

First: A39C G59A C68A
Second: G13U U31G A64G
The “self-cleavage kobs at 10000 uM GlcN6P” value of the first is lower: less than 1e-05 s⁻¹ for the first, 0.00021 ± 5.2e-05 s⁻¹ for the second.

First: U30A A42G U46A
Second: A14G C16A G29C A53G
The “self-cleavage kobs at 10000 uM GlcN6P” value of the first is 2.2-fold lower: 0.000409 ± 9.1e-05 s⁻¹ for the first, 0.000885 ± 0.00021 s⁻¹ for the second.

U54G C61A and A6U C11G G41C G62A G66U cannot be ordered by “self-cleavage kobs at 10000 uM GlcN6P” value: less than 1e-05 s⁻¹ for the first, less than 1e-05 s⁻¹ for the second.

U31C C67G C70A and U31G G38U A53U cannot be ordered by “self-cleavage kobs at 10000 uM GlcN6P” value: less than 1e-05 s⁻¹ for the first, less than 1e-05 s⁻¹ for the second.

Going from A33C A39G U69G to U46G C61G C71G, the “self-cleavage kobs at 10000 uM GlcN6P” value rises from less than 1e-05 s⁻¹ to 4.27e-05 ± 1.8e-05 s⁻¹.

A12G A14C C67U and A14U A15C C68U are within error of each other in “self-cleavage kobs at 10000 uM GlcN6P” value: 7.11e-05 ± 1.5e-05 s⁻¹ for the first, 6.11e-05 ± 2e-05 s⁻¹ for the second.

Going from G40C G43U G51U to G29U A39C G40A G66A, the “self-cleavage kobs at 10000 uM GlcN6P” value rises from less than 1e-05 s⁻¹ to 6.36e-05 ± 1.3e-05 s⁻¹.

U47G U54G G62U and G38U A39C G44A cannot be ordered by “self-cleavage kobs at 10000 uM GlcN6P” value: less than 1e-05 s⁻¹ for the first, less than 1e-05 s⁻¹ for the second.

Compared with C16U G37A U65G, U30C A36C U49A is lower in “self-cleavage kobs at 10000 uM GlcN6P” value: 0.000183 ± 3.8e-05 s⁻¹ for the first, less than 1e-05 s⁻¹ for the second.

First: U31A G32A G62U
Second: U47A U54G U55A C70A
The “self-cleavage kobs at 10000 uM GlcN6P” value of the first is lower: less than 1e-05 s⁻¹ for the first, 0.000105 ± 3e-05 s⁻¹ for the second.

Compared with A14U A48C U55A, A12G A39C G66U is 2-fold higher in “self-cleavage kobs at 10000 uM GlcN6P” value: 3.3e-05 ± 1.5e-05 s⁻¹ for the first, 6.62e-05 ± 1.8e-05 s⁻¹ for the second.

Going from C8G C34A G66C to A53C U55G C67U, the “self-cleavage kobs at 10000 uM GlcN6P” value rises from less than 1e-05 s⁻¹ to 0.00164 ± 0.00038 s⁻¹.

Going from A6C G9A C34A G40C G43A C50U U54A C58G C68U to U54G G63C U65C C68G C71G, the “self-cleavage kobs at 10000 uM GlcN6P” value rises from less than 1e-05 s⁻¹ to 3.78e-05 ± 1.6e-05 s⁻¹.

A6U A39U U54A G60U and G38C U49A G51U C71U cannot be ordered by “self-cleavage kobs at 10000 uM GlcN6P” value: less than 1e-05 s⁻¹ for the first, less than 1e-05 s⁻¹ for the second.

Going from U31A U46G to U46G C50G C67G, the “self-cleavage kobs at 10000 uM GlcN6P” value falls from 0.00387 ± 0.0007 s⁻¹ to less than 1e-05 s⁻¹.

Going from G13C U56G A64G C67A to G7U A12C U45C, the “self-cleavage kobs at 10000 uM GlcN6P” value falls from 3.32e-05 ± 1.4e-05 s⁻¹ to less than 1e-05 s⁻¹.

First: A42G U46A A64G
Second: A39G G43U G44U C67G
The “self-cleavage kobs at 10000 uM GlcN6P” value of the first is 87-fold higher: 0.00462 ± 0.0009 s⁻¹ for the first, 5.34e-05 ± 1.9e-05 s⁻¹ for the second.

G35C G51U C58U C61G A64G U65A and C11U G29U G40U G62U cannot be ordered by “self-cleavage kobs at 10000 uM GlcN6P” value: less than 1e-05 s⁻¹ for the first, less than 1e-05 s⁻¹ for the second.

First: C11G C50G C68G C71U
Second: A15U G38U U57C C61U
The “self-cleavage kobs at 10000 uM GlcN6P” value of the first is higher: 8.16e-05 ± 1.7e-05 s⁻¹ for the first, less than 1e-05 s⁻¹ for the second.

With A39G G60C C70U the “self-cleavage kobs at 10000 uM GlcN6P” value was less than 1e-05 s⁻¹.
